{"source": "patent US20240216555A1", "about": "“TARGETING AND TREATMENT OF CANCEROUS CELLS USING RADIOLABELED GRP78-BINDING AGENTS” (University of Kentucky Research Foundation, priority 2022, published 2024)", "origin": "cited, not measured here", "key": {"csGRP78 [1]": {"molecular_target": "T1, csGRP78 (Homo sapiens, UniProt P11021)", "T1 sequence (P11021 19-654)": "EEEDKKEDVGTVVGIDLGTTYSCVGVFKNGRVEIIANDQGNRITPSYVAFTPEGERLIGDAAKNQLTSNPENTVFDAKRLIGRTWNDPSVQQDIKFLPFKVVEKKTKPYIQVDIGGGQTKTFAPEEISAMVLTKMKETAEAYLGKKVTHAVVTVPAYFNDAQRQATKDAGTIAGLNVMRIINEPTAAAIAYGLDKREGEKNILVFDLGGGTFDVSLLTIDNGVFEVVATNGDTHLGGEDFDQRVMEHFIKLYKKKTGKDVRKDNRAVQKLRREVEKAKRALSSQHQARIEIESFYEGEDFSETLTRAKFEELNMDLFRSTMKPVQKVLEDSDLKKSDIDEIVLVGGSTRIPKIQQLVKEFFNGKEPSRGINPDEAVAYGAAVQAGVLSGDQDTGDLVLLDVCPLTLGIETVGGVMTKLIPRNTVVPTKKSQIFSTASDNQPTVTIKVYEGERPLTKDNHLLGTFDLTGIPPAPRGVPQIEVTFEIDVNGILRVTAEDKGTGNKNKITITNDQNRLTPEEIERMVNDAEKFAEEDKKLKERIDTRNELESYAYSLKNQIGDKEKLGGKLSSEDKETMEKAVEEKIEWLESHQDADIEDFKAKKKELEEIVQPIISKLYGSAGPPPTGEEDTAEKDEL", "conditions": "previously shown; cited from earlier work"}, "csGRP78 [2]": {"molecular_target": "T1, csGRP78", "conditions": "previously shown; cited from earlier work", "remark": "listed apart in the source"}}, "note": "Where no end group is shown, it is not given here."}
{"sequence": "CTVALPGGYVRVC (also: cyclic (type not given here))", "values": [{"measurement": "translocation to the ER", "setting": "csGRP78 [1]", "result": "translocate to the ER"}, {"measurement": "binding to csGRP78", "setting": "csGRP78 [2]", "result": "bind to csGRP78"}]}
